Assay results reported in publication PMC9304055, “Biochemical analysis of novel NAA10 variants suggests distinct pathogenic mechanisms involving impaired protein N-terminal acetylation” (Human Genetics, 2022).

Target: T1, NAA10 A6P-V5 (human, UniProt P41227-1 1-235, A6P)
T1 construct: NAA10, human, patient variant c.16G>C p.(A6P), made by site-directed mutagenesis of pcDNA3.1/NAA10-WT-V5; Same construct as m1 with the variant found in a patient; also called NAA10 p.(A6P); c.16G>C p.(Ala6Pro); source: HeLa, transfected, in lysate
T1 sequence (looked up): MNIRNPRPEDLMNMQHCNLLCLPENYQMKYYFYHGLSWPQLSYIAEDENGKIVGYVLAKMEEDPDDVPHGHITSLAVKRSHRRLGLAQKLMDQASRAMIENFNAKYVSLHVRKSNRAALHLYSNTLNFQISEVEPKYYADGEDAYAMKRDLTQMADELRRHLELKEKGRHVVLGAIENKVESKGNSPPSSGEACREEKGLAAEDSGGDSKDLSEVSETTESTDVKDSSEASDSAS
Assay: co-IP; anti-V5 immunoprecipitation (Dynabeads Protein G) of NAA10-V5 from lysates of transfected HeLa cells; lysis buffer 50 mM Tris-HCl pH 8.0, 150 mM NaCl, 5 mM EDTA, 0.5% NP-40, 4 °C; co-precipitated NAA15 detected by Western blot
Details: partners not purified

fold less NAA15 co-immunoprecipitated than with NAA10 WT-V5: 5 fold
B1: NAA15 (natural protein, human (endogenous in HeLa), UniProt Q9BXJ9 1-866, looked up)
chain: MPAVSLPPKENALFKRILRCYEHKQYRNGLKFCKQILSNPKFAEHGETLAMKGLTLNCLGKKEEAYELVRRGLRNDLKSHVCWHVYGLLQRSDKKYDEAIKCYRNALKWDKDNLQILRDLSLLQIQMRDLEGYRETRYQLLQLRPAQRASWIGYAIAYHLLEDYEMAAKILEEFRKTQQTSPDKVDYEYSELLLYQNQVLREAGLYREALEHLCTYEKQICDKLAVEETKGELLLQLCRLEDAADVYRGLQERNPENWAYYKGLEKALKPANMLERLKIYEEAWTKYPRGLVPRRLPLNFLSGEKFKECLDKFLRMNFSKGCPPVFNTLRSLYKDKEKVAIIEELVVGYETSLKSCRLFNPNDDGKEEPPTTLLWVQYYLAQHYDKIGQPSIALEYINTAIESTPTLIELFLVKAKIYKHAGNIKEAARWMDEAQALDTADRFINSKCAKYMLKANLIKEAEEMCSKFTREGTSAVENLNEMQCMWFQTECAQAYKAMNKFGEALKKCHEIERHFIEITDDQFDFHTYCMRKITLRSYVDLLKLEDVLRQHPFYFKAARIAIEIYLKLHDNPLTDENKEHEADTANMSDKELKKLRNKQRRAQKKAQIEEEKKNAEKEKQQRNQKKKKDDDDEEIGGPKEELIPEKLAKVETPLEEAIKFLTPLKNLVKNKIETHLFAFEIYFRKEKFLLMLQSVKRAFAIDSSHPWLHECMIRLFNTAVCESKDLSDTVRTVLKQEMNRLFGATNPKNFNETFLKRNSDSLPHRLSAAKMVYYLDPSSQKRAIELATTLDESLTNRNLQTCMEVLEALYDGSLGDCKEAAEIYRANCHKLFPYALAFMPPGYEEDMKITVNGDSSAEAEELANEI
notes: NAA15, large auxiliary subunit of the NatA complex, endogenous in HeLa cells, detected with NAA15 rabbit polyclonal antibody (previously called anti-NATH); also called auxiliary subunit of NatA; NATH; source: endogenous, HeLa lysate
